Article PMC7878818 (2021)
Blank lines part the entries; values can stand above or below the binder they belong to. Ends that are not written are not given here. Me3 = trimethyl group on lysine (trimethyl-lysine); Me2 = dimethyl group on lysine (dimethyl-lysine)

Experiments:
Test in all cases: ITC
[1] = biological target: Spindlin1 W72A/C11orf84 complex (human, UniProt Q9Y657 50-262; Q9BUA3 1-381, W72A)
[2] = biological target: Spindlin1 Y91A/C11orf84 complex (human, UniProt Q9Y657 50-262; Q9BUA3 1-381, Y91A)
Sequence of Spindlin1 Y91A/C11orf84 complex (Q9Y657 50-262 Y91A, chain 1 of 2): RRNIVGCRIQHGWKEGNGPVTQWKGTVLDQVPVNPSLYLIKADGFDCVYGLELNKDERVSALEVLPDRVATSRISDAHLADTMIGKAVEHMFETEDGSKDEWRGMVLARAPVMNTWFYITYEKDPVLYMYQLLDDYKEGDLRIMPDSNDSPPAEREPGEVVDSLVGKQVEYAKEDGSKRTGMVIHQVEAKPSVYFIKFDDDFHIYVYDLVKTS
Sequence of Spindlin1 Y91A/C11orf84 complex (Q9BUA3 whole entry, chain 2 of 2): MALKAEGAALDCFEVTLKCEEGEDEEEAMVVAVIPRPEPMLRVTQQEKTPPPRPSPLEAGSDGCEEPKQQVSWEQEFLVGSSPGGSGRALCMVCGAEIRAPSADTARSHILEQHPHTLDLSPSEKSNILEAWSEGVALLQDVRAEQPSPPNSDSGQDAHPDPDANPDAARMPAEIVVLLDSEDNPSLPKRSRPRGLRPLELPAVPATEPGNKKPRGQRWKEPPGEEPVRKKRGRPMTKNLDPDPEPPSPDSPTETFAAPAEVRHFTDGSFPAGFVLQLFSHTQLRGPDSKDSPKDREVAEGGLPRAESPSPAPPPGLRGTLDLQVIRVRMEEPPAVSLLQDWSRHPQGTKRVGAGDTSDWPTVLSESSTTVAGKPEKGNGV

[3] = biological target: Spindlin1 W62A/C11orf84 complex (human, UniProt Q9Y657 50-262; Q9BUA3 1-381, W62A)
Sequence of Spindlin1 W62A/C11orf84 complex (Q9Y657 50-262 W62A, chain 1 of 2): as the sequence (Q9Y657 50-262 Y91A, chain 1 of 2) above, with W13A, A42Y counted along it
Sequence of Spindlin1 W62A/C11orf84 complex (Q9BUA3 whole entry, chain 2 of 2): as the sequence (Q9BUA3 whole entry, chain 2 of 2) above

[4] = biological target: Spindlin1 D173A/C11orf84 complex (human, UniProt Q9Y657 50-262; Q9BUA3 1-381, D173A)
Sequence of Spindlin1 D173A/C11orf84 complex (Q9Y657 50-262 D173A, chain 1 of 2): as the sequence (Q9Y657 50-262 Y91A, chain 1 of 2) above, with A42Y, D124A counted along it
Sequence of Spindlin1 D173A/C11orf84 complex (Q9BUA3 219-305, chain 2 of 2): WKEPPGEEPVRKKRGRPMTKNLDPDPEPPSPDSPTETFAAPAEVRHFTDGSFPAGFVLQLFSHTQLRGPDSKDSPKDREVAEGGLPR

[5] = biological target: Spindlin1 W62A/W72A/C11orf84 complex (human, UniProt Q9Y657 50-262; Q9BUA3 1-381, W62A | W72A)
Sequence of Spindlin1 W62A/W72A/C11orf84 complex (Q9Y657 50-262 W62A/W72A, chain 1 of 2): as the sequence (Q9Y657 50-262 Y91A, chain 1 of 2) above, with W13A, W23A, A42Y counted along it
Sequence of Spindlin1 W62A/W72A/C11orf84 complex (Q9BUA3 whole entry, chain 2 of 2): as the sequence (Q9BUA3 whole entry, chain 2 of 2) above

[6] = biological target: Spindlin1 F141A/C11orf84 complex (human, UniProt Q9Y657 50-262; Q9BUA3 1-381, F141A)
Sequence of Spindlin1 F141A/C11orf84 complex (Q9Y657 50-262 F141A, chain 1 of 2): as the sequence (Q9Y657 50-262 Y91A, chain 1 of 2) above, with A42Y, F92A counted along it
Sequence of Spindlin1 F141A/C11orf84 complex (Q9BUA3 whole entry, chain 2 of 2): as the sequence (Q9BUA3 whole entry, chain 2 of 2) above

[7] = biological target: Spindlin1 Y98A/C11orf84 complex (human, UniProt Q9Y657 50-262; Q9BUA3 1-381, Y98A)
Sequence of Spindlin1 Y98A/C11orf84 complex (Q9Y657 50-262 Y98A, chain 1 of 2): as the sequence (Q9Y657 50-262 Y91A, chain 1 of 2) above, with A42Y, Y49A counted along it
Sequence of Spindlin1 Y98A/C11orf84 complex (Q9BUA3 whole entry, chain 2 of 2): as the sequence (Q9BUA3 whole entry, chain 2 of 2) above

[8] = biological target: Spindlin1/C11orf84 complex (human, UniProt Q9Y657 50-262; Q9BUA3 1-381)
Sequence of Spindlin1/C11orf84 complex (Q9Y657 50-262, chain 1 of 2): as the sequence (Q9Y657 50-262 Y91A, chain 1 of 2) above, with A42Y counted along it
Sequence of Spindlin1/C11orf84 complex (Q9BUA3 219-305, chain 2 of 2): as the sequence (Q9BUA3 219-305, chain 2 of 2) above

Sequence of Spindlin1 W72A/C11orf84 complex (Q9Y657 50-262 W72A, chain 1 of 2): as the sequence (Q9Y657 50-262 Y91A, chain 1 of 2) above, with W23A, A42Y counted along it
Sequence of Spindlin1 W72A/C11orf84 complex (Q9BUA3 whole entry, chain 2 of 2): as the sequence (Q9BUA3 whole entry, chain 2 of 2) above

Binder: ARTK(Me3)QTARKSTG [H3K4me3 peptide]
Kd [8]: 213 nM

Binder: ARTK(Me3)QTARK(Me2)STG [H3K4me3K9me2 peptide]
Kd [8]: 42 nM

Next, values leading:

Kd [1]: 77 nM
Kd [2]: 59 nM
Kd [3]: 71 nM
Kd [4]: 57 nM
Kd [5]: 199 nM
Kd [6]: 869 nM
Kd [7]: 80 nM
Binder: ARTK(Me3)QTARK(Me3)STG [H3K4me3K9me3 peptide]

Kd [8]: 82 nM
Binder: ARTK(Me3)QTAR(asymmetric Me2)KSTG [H3K4me3R8me2a peptide]

Kd [8]: 2880 nM
Binder: ARTKQTARKSTG (K9me3) [H3K9me3 peptide]
